Each block holds one binder with its values, some of them ahead of it. No end group written: not given here.
B3: ERK5 MAPK construct containing the N-terminal region of ERK5-(1–431) (domain or fragment)
chain: MAEPLKEEDGEDGSAEPPGPVKAEPAHTAASVAAKNLALLKARSFDVTFDVGDEYEIIETIGNGAYGVVSSARRRLTGQQVAIKKIPNAFDVVTNAKRTLRELKILKHFKHDNIIAIKDILRPTVPYGEFKSVYVVLDLMESDLHQIIHSSQPLTLEHVRYFLYQLLRGLKYMHSAQVIHRDLKPSNLLVNENCELKIGDFGMARGLCTSPAEHQYFMTEYVATRWYRAPELMLSLHEYTQAIDLWSVGCIFGEMLARRQLFPGKNYVHQLQLIMMVLGTPSPAVIQAVGAERVRAYIQSLPPRQPVPWETVYPGADRQALSLLGRMLRFEPSARISAAAALRHPFLAKYHDPDDEPDCAPPFDFAFDREALTRERIKEAIVAEIEDFHARREGIRQQIRFQPSLQPVASEPGCPDVEMPSPWAPSGDCAM

Legend:
[1] = biological target: B3; experiment: fluorescence polarisation
ERK2 = ERK2 (human, UniProt P28482 1-360); experiment: fluorescence polarisation
[2] = biological target: B3; experiment: pull-down
[3] = biological target: T1, MBP fusion of MKK5(PB1-D) (construct E, 16–130) (human, UniProt Q13163 16-130); experiment: pull-down
T1 sequence: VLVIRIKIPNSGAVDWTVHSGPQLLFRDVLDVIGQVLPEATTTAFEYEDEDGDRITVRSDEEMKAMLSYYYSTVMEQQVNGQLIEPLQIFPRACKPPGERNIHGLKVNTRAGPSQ

[4] = biological target: B3; experiment: fluorescence polarisation; remark: listed apart in the source
[5] = biological target: Full-length MKK5 (MKK5_FL) (human, UniProt Q13163 1-448); experiment: fluorescence polarisation

ERK2, sequence (P28482 whole entry): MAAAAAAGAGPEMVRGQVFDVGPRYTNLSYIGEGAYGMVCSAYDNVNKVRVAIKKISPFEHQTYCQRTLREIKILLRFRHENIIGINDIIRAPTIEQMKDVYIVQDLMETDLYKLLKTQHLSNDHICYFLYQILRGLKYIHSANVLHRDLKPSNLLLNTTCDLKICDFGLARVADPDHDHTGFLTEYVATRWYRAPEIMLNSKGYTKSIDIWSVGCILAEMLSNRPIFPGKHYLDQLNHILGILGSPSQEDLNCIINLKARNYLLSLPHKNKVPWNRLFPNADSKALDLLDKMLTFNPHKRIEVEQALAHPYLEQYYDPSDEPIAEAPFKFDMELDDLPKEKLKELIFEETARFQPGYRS

B1: MBP fusion of MKK5 construct B (113–448) (domain or fragment, human, UniProt Q13163 113-448, looked up)
chain: GERNIHGLKVNTRAGPSQHSSPAVSDSLPSNSLKKSSAELKKILANGQMNEQDIRYRDTLGHGNGGTVYKAYHVPSGKILAVKVILLDITLELQKQIMSELEILYKCDSSYIIGFYGAFFVENRISICTEFMDGGSLDVYRKMPEHVLGRIAVAVVKGLTYLWSLKILHRDVKPSNMLVNTRGQVKLCDFGVSTQLVNSIAKTYVGTNAYMAPERISGEQYGIHSDVWSLGISFMELALGRFPYPQIQKNQGSLMPLQLLQCIVDEDSPVLPVGEFSEPFVHFITQCMRKQPKERPAPEELMGHPFIVQFNDGNAAVVSMWVCRALEERRSQQGPP
- binding result [2]: binds

B2: GST-MEKK3(PB1) (MEKK3 PB1 domain, residues 42–126) (domain or fragment)
chain: QSDVRIKFEHNGERRIIAFSRPVKYEDVEHKVTTVFGQPLDLHYMNNELSILLKNQDDLDKAIDILDRSSSMKSLRILLLSQDRN
- binding result [3]: binds

Binder: B3
- Kd [5]: < 0.1 µM

Continued, values first:

- Kd [1]: 4.2 µM
- Kd (ERK2): > 100 µM
Binder: ASKPPGERNIHGLKVNTRA [pepMKK5 (peptide with the linear D-motif of MKK5)]

- binding result [4]: binds
Binder: tetramethylrhodamin-SRKPDLRVVIPPS [pepMEF2 (labeled MEF2A D-motif peptide)]
